Here are results for 14 molecules from patent publication US20170114140A1 (Amgen, published 2017).

Test [1] deals with T1, human IL-17RA on cells (human PBMC; human foreskin fibroblasts) (human, UniProt Q96F46 33-866). The test is described as follows: cell-based or functional assay.
Test [2] concerns the target T1, human IL-17RA on cells (human PBMC; …). The test is described as follows: cell-based or functional assay. The source holds these as a separate data set.
Test [3] addresses T2, IL-17RA.HIS (extracellular domain of human IL-17RA fused to a polyhistidine tag) (human, UniProt Q96F46 33-320).
T2 construct: extracellular domain
Put plainly: co-immunoprecipitation on Protein G beads, Western blot with anti-IL-17RA. (In general: In western blotting, separated proteins are transferred to a membrane and probed.)

B1: 2.46.1 (antibody, V domains shown)
VH: QVQLVQSGAEVKKPGASVKVSCKASGNTFTGYGISWVRQAPGQGLEWMGWISAYNGNTNYAQNLQGRVTMTTDTSTSTAYMELRSLRSDDTAVYYCARRDYDILTGYYNGFDPWGQGTLVTVSS
VL: DIQMTQSPSSLSASVGDRVTITCRASQGIRNDLGWYQQKPGKAPKRLIYAASSLQSGVPSRFSGSGSGTEFTLTISSLQPEDFATYYCLQHKSYPLTFGGGTKVEIK
As to B1, in test [1], the “% Inhib. of IL-5 production (TSLP treated human PBMC + IL-2 + IL-25), Expt. 1” value (from here on “% Inhib. of IL-5 production … Expt. 1”) came to 0%; the “% Inhib. of IL-5 production (TSLP treated human PBMC + IL-2 + IL-25), Expt. 2” value (from here on “% Inhib. of IL-5 production … Expt. 2”) worked out at 6%; the “% Inhib. of IL-5 production (TSLP treated human PBMC + IL-2 + IL-25), Expt. 3” value (“% Inhib. of IL-5 production … Expt. 3” below) is 0%.

B2: 2.225.1 (antibody, V domains shown)
VH: QVQLVQSGVEVKKPGASVKVSCKASGYTLTRYGISWVRQAPGQGLEWMGWISAYNGNTNYAQKLQGRVTMTTDTSTSTAYMELRSLRSDDTAVYYCARRDYDILTGYYNGFDPWGQGTLVTVSS
VL: DIQMTQSPSSLSASVGDRVTITCRASQGIRNDLGWYQQKPGKAPKRLIYAASSLQSGVPSRFSGSGSGTEFTLTISSLQPEDFATYYCLQHKSYPLTFGGGTKVEIK
Consider B2, for which, in test [1], the “% Inhib. of IL-5 production … Expt. 1” value was 0% and the “% Inhib. of IL-5 production … Expt. 3” value is 0%.

B3: 2.133.1 (antibody, V domains shown)
VH: QVQLQESGPGLVKPSETLSLTCTVSGGSISNYYWNWIRQSPGKGLEWIGDIYYSGSTNYNPSLKSRVTISVDTSKNQFSLKLSSVTTADTAVYYCARDGELANYYGSGSYQFYYYYGMDVWGQGTTVTVSS
VL: DILMTQSPSSLSASVGDRVTITCRASQGIRNDLGWYQQKPGKAPKRLIYAASSLQSGVPSRFSGSGSGTEFTLTISSLQPEDFATYYCLQHNSNPFTFGPGTKVDIK
As for B3, in test [1], the “% Inhib. of IL-5 production … Expt. 1” value was determined as 0%; the “% Inhib. of IL-5 production … Expt. 2” value amounted to 16%; the “% Inhib. of IL-5 production … Expt. 3” value came out at 28%.

B4: 2.98.1 (antibody, V domains shown)
VH: QVQLVQSGAEVKKPGASVKVSCKASGYTLTRYGISWVRQAPGQGLEWMGWISAYNGNTNYAQKLQGRVTMTTDTSTSTAYMELRSLRSDDTAVYYCARRDYDILTGYYNGFDPWGQGTLVTVSS
VL: DIQMTQSPSSLSASVGDRVTITCRASQGIRNDLGWYQQKPGKAPKRLIYAASSLQSGVPSRFSGSGSGTEFTLTISSLQPEDFATYYCLQHKSYPLTFGGGTKVEIK
On to B4, for which, in test [1], the “% Inhib. of IL-5 production … Expt. 1” value came out at 0%; the “% Inhib. of IL-5 production … Expt. 2” value stood at 79%; the “% Inhib. of IL-5 production … Expt. 3” value came out at 0%.

B5: 2.67.1 (antibody, V domains shown)
VH: QVQLVQSGAEVKKPGASVKVSCKASGYTLTRYGISWVRQAPGQGLEWMGWISAYNGNTNYAQKLQGRVTMTTDTSTSTAYMELRSLRSDDTAVYYCARRDYDILTGYYNGFDPWGQGTLVTVSS
VL: DIQMTQSPSSLSASVGDRVTITCRASQGIRNDLGWYQQKPGKAPKRLIYAASSLQSGVPSRFSGSGSGTEFTLTISSLQPEDFATYYCLQHKSYPLTFGGGTKVEIK
Take B5: in test [1], the “% Inhib. of IL-5 production … Expt. 1” value stood at 0%; the “% Inhib. of IL-5 production … Expt. 2” value was determined as 13%; the “% Inhib. of IL-5 production … Expt. 3” value is 3%.

B6: 4.16.1 (antibody, IgG2, V domains shown)
VH: QVQLVQSGAEVKKPGASVKVSCKASGYTLTSYGISWVRQAPGQGLEWMGWISAYSGNTKYAQKFQGRVTMTTDTSTSTAYMELRSLRSDDTAVYYCARRQLALDYWGQGTLVTVSS
VL: EIVMTQSPATLSVSPGERATLSCRASQSISSNLAWYQQKPGQAPRLLIYGASTRATGIPARFSDNGSGTEFTLTISSLQSEDFAVYFCQQYDTWPLTFGGGTKVEIK
As to B6, in test [2], the “% Inhibition of IL-5 production (TSLP treated human PBMC + IL-2 + IL-25), inhibitor 10 micrograms/mL” value is 86%. In test [1], the “% Inhib. of IL-5 production … Expt. 2” value was 77% and the “% Inhib. of IL-5 production … Expt. 3” value stood at 100%.

B7: 4.393.1 (antibody, V domains shown)
VH: QVQLVQSGAEVKKPGASVKVSCKASGYTFTSYGISWVRQAPGQGLEWMGWISAYNGNTKYAQKLQGRVTMTTDTSTSTVYMELRSLRSDDTAVYYCARKQLVFDYWGQGTLVTVSS
VL: EIVMTQSPATLSVSPGERATLSCRASQSISTSLAWYQQKPGQAPRLLIYGTSTRATGIPARFSGSGSGTEFTLTISSLQSEDFAVYFCQQYDIWPLTFGGGTKVEIK
For B7, in test [1], the “% Inhib. of IL-5 production … Expt. 1” value is 28%; the “% Inhib. of IL-5 production … Expt. 2” value is 72%; the “% Inhib. of IL-5 production … Expt. 3” value came out at 45%.

B8: 3.381.1 (antibody, IgG2, V domains shown)
VH: QVQLVQSGAEVKKPGASVKVSCKASGYTFTRYGISWVRQAPGQGLEWMGWISAYSGNTNYAQKLQGRVTMTTDTSTSTAYMELRSLRSDDTAVYYCARRQLYFDYWGQGTLVTVSS
VL: EIVMTQSPATLSVSPGERVTLSCRASQSVSSNLAWFQQKPGQAPRPLIYDASTRAAGIPARFSGSGSGTDFTLTISSLQSEDFAVYYCQQYDNWPLTFGGGTKVEIK
Consider B8, for which the “% Inhibition of IL-5 production (TSLP treated human PBMC + IL-2 + IL-25), inhibitor 10 micrograms/mL” value in test [2] stood at 100%. In test [1], the “% Inhib. of IL-5 production … Expt. 1” value stood at 69%; the “% Inhib. of IL-5 production … Expt. 2” value stood at 82%; the “% Inhib. of IL-5 production … Expt. 3” value was 74%.

B9: 4.357.1 (antibody, V domains shown)
VH: QVQLVQSGAEVKKPGASVKVSCKASGYTLTSYGISWVRQAPGQGLEWMGWISTYKGNTNYAQKLQGRVTMTTDTSTSTAYMELRSLRSDDTAVYYCARKQLVFDYWGQGTLVTVSS
VL: EIVMTQSPATLSVSPGERATLSCRASQSISSSLAWYQQKPGQAPRLLIYGASTRATGIPARFSGSGSGTEFTLTISSLQSENFAVYYCQQYDNWPLTFGGGTKVEIK
Turning to B9, in test [1], the “% Inhib. of IL-5 production … Expt. 1” value amounted to 0% and the “% Inhib. of IL-5 production … Expt. 3” value is 11%.

B10: 3.1404.1 (antibody, IgG2, V domains shown)
VH: QVQLVQSGAEVKKPGASVKVSCKASGYTFTRYGISWVRQAPGQGLEWMGWISTYSGNTNYAQKLQGRVTMTTDTSTSTAYMELRSLRSDDTAVYYCARRQLYFDYWGQGTLVTVSS
VL: EIVMTQSPATLSVSPGERATLSCRASQSVSSNLAWFQQKPGQAPRPLIYDASTRATGVPARFSGSGSGTDFTLTISSLQSEDFAVYYCQQYDNWPLTFGGGTKVEIK
Consider B10, for which the “% Inhib. of IL-5 production … Expt. 3” value in test [1] came out at 69%.

B11: IL-17RB.Fc (extracellular domain of human IL-17RB fused to the Fc region of human IgG) (Fc fusion, UniProt Q9NRM6 18-292, looked up, not shown: a dimerising Fc or GST)
chain: REPTVQCGSETGPSPEWMLQHDLIPGDLRDLRVEPVTTSVATGDYSILMNVSWVLRADASIRLLKATKICVTGKSNFQSYSCVRCNYTEAFQTQTRPSGGKWTFSYIGFPVELNTVYFIGAHNIPNANMNEDGPSMSVNFTSPGCLDHIMKYKKKCVKAGSLWDPNITACKKNEETVEVNFTTTPLGNRYMALIQHSTIIGFSQVFEPHQKKQTRASVVIPVTGDSEGATVQLTPYFPTCGSDCIRHKGTVVLCPQTGVPFPLDNNKSKPGGWLP
notes: extracellular domain; also called HuIL-17RB: Fc
As for B11, the binding result in test [3] is recorded as “binds”.

B12: 2.23.1 (antibody, V domains shown)
VH: QVQLVESGGGLVKPGGSLRLSCAASGFTFSDYYMSWIRQAPGKGLEWVSYISSSGSTIYYADSVKGRFTISRDNAKNSLYLQMNSLRAEDTAVYYCARDRTYYFGSGSYEGMDVWGQGTTVTVSS
VL: EILMTQSPATLSVSPGERATLSCRASQSVYSNLAWYQQKPGQAPRLLISGASTRATGIPARFSGSGSGTEFTLTISSLQSEDFAVYYCQQYYNWPWTFGQGTKVEIK
Take B12: in test [1], the “% Inhib. of IL-5 production … Expt. 1” value is 0% and the “% Inhib. of IL-5 production … Expt. 3” value was determined as 0%.

B13: 3.1545.1 (antibody, V domains shown)
VH: EVQLVESGGGSVQPGGSLRLSCAASGFTFSSYSMNWVRQAPGKGLEWVSIISSRSSIIHYADSVKGRFTISRDNAKNSLYLQMNSLRDEDTAVYYCARPKVGGGMDVWGQGTTVTVSS
VL: DIQMTQSPSSLSASVGDRVTITCRASQGISNYLAWYQQKPGKFPELLIYAASTLQSGVPSRFSGSGSGTDFTLTISSLQPEDVATYYCQKYNRAPFTFGPGTKVDIK
On to B13, for which, in test [1], the “% Inhib. of IL-5 production … Expt. 1” value is 0%; the “% Inhib. of IL-5 production … Expt. 2” value worked out at 43%; the “% Inhib. of IL-5 production … Expt. 3” value was found to be 0%.

B14: 1.185.1 (antibody, V domains shown)
VH: QVQLVESGGGVVQPGRSLRLSCAASGINFSSYGMHWVRQAPGKGLEWVAVIWYDGSNKHYADSVKGRFTISRDNSKNTLYLQMNSLRAEDTAVYYCARDTGVYWGQGTLVTVSS
VL: not shown
B14: in test [1], the “% Inhib. of IL-5 production … Expt. 1” value is 0%; the “% Inhib. of IL-5 production … Expt. 2” value amounted to 41%; the “% Inhib. of IL-5 production … Expt. 3” value is 9%.
